# Results from patent publication US20230381229A1 (ALPINE IMMUNE SCIENCES, INC., published 2023).
# Substitutions are numbered along the chain they refer to. Names may count otherwise.
# T1: human TIGIT (human)
# T1 chain: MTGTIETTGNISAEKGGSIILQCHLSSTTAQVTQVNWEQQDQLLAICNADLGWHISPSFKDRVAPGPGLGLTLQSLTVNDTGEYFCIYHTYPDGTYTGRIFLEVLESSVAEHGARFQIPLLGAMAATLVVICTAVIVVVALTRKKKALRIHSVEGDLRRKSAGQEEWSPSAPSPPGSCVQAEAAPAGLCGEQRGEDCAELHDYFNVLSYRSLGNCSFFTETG
# T2: TIGIT (human)
# T2 chain: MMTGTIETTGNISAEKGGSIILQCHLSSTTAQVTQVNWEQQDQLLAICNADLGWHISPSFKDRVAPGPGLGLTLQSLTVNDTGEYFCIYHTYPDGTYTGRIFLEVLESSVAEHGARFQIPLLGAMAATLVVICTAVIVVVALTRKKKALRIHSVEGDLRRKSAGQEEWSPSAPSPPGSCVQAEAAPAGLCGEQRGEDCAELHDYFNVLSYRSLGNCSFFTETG
# B1: Full length ECD of PD-L2 (ligand)
# chain: LFTVTVPKELYIIEHGSNVTLECNFDTGSHVNLGAITASLQKVENDTSPHRERATLLEEQLPLGKASFHIPQVQVRDEGQYQCIIIYGVAWDYKYLTLKVKASYRKINTHILKVPETDEVELTCQATGYPLAEVSWPNVSVPANTSHSRTPEGLYQVTSVLRLKPPPGRNFSCVFWNTHVRELTLASIDLQSQMEPRTHPT
# B2: variant CD155 IgV-Fc V9L, V11M, P18S, N35S, S54G, Q62K, L79P, L104M, T107M, V115M (Fc fusion)
# chain: WPPPGTGDLVMQAPTQVSGFLGDSVTLPCYLQVPSMEVTHVSQLTWARHGESGGMAVFHQTKGPSYSESKRLEFVAARPGAELRNASLRMFGLRVEDEGNYTCMFVMFPQGSRSMDIWLRVLGSGGGGSEPKSSDKTHTCPPCPAPEAEGAPSVFLFPPKPKDTLMISRTPEVTCVVVDVSHEDPEVKFNWYVDGVEVHNAKTKPREEQYNSTYRVVSVLTVLHQDWLNGKEYKCKVSNKALPAPIEKTISKAKGQPREPQVYTLPPSRDELTKNQVSLTCLVKGFYPSDIAVEWESNGQPENNYKTTPPVLDSDGSFFLYSKLTVDKSRWQQGNVFSCSVMHEALHNHYTQKSLSLSPGK
# B3: variant CD155 IgV-Fc P18C, T26M, L44V, M55I, Q62K, L79P, F91S, L104M, T107M (Fc fusion)
# chain: B2 chain with L9V, M11V, S18C, T26M, S35N, L44V, G54S, M55I, F91S, M115V
# B4: variant CD155 IgV-Fc P18T, E37G, G53R, Q62K, L79P, F91S, E98D, L104M, T107M (Fc fusion)
# chain: B2 chain with L9V, M11V, S18T, S35N, E37G, G53R, G54S, F91S, E98D, M115V
# B5: variant CD155 IgV-Fc V9L, P18T, Q62R, L79P, F91S, L104M, G111R (Fc fusion)
# chain: B2 chain with M11V, S18T, S35N, G54S, K62R, F91S, M107T, G111R, M115V
# B6: variant CD155 IgV-Fc D8G, P18S, M36I, V38A, H49Q, A76E, F91S, L104M, T107A, R113W (Fc fusion)
# chain: WPPPGTGGVVVQAPTQVSGFLGDSVTLPCYLQVPNIEATHVSQLTWARQGESGSMAVFHQTQGPSYSESKRLEFVEARLGAELRNASLRMSGLRVEDEGNYTCMFVAFPQGSWSVDIWLRVLGSGGGGSEPKSSDKTHTCPPCPAPEAEGAPSVFLFPPKPKDTLMISRTPEVTCVVVDVSHEDPEVKFNWYVDGVEVHNAKTKPREEQYNSTYRVVSVLTVLHQDWLNGKEYKCKVSNKALPAPIEKTISKAKGQPREPQVYTLPPSRDELTKNQVSLTCLVKGFYPSDIAVEWESNGQPENNYKTTPPVLDSDGSFFLYSKLTVDKSRWQQGNVFSCSVMHEALHNHYTQKSLSLSPGK
# B7: variant CD155 IgV-Fc P18T, S52P, S65A, S67V, L79P, F91S, L104M, G111R (Fc fusion)
# chain: WPPPGTGDVVVQAPTQVTGFLGDSVTLPCYLQVPNMEVTHVSQLTWARHGEPGSMAVFHQTQGPAYVESKRLEFVAARPGAELRNASLRMSGLRVEDEGNYTCMFVTFPQRSRSVDIWLRVLGSGGGGSEPKSSDKTHTCPPCPAPEAEGAPSVFLFPPKPKDTLMISRTPEVTCVVVDVSHEDPEVKFNWYVDGVEVHNAKTKPREEQYNSTYRVVSVLTVLHQDWLNGKEYKCKVSNKALPAPIEKTISKAKGQPREPQVYTLPPSRDELTKNQVSLTCLVKGFYPSDIAVEWESNGQPENNYKTTPPVLDSDGSFFLYSKLTVDKSRWQQGNVFSCSVMHEALHNHYTQKSLSLSPGK
# B8: variant CD155 IgV-Fc P18T, M36T, S65A, S67E, L79Q, A81T, F91S, G111R (Fc fusion)
# chain: B7 chain with M36T, P52S, V67E, P79Q, A81T, M104L
# B9: variant CD155 IgV-Fc V9I, V10I, P18S, F20S, T45A, L79P, F91S, L104M, F108Y, G111R, S112V (Fc fusion)
# chain: B7 chain with V9I, V10I, T18S, F20S, T45A, P52S, A65S, V67S, F108Y, S112V
# B10: variant CD155 IgV-Fc V9I, P18T, D23G, L79P, F91S, G111R (Fc fusion)
# chain: B7 chain with V9I, D23G, P52S, A65S, V67S, M104L
# B11: variant CD155 IgV-Fc P18S, S52P, S65A, S67V, L79P, F91S, L104M, T107S, R113W (Fc fusion)
# chain: B7 chain with T18S, T107S, R111G, R113W
# B12: variant CD155 IgV-Fc V9I, Q12K, P18F, S65A, S67V, L79P, L104T, G111R, S112I (Fc fusion)
# chain: B7 chain with V9I, Q12K, T18F, P52S, S91F, M104T, S112I
# B13: variant CD155 IgV-Fc P18F, S65A, S67V, F91S, L104M, G111R (Fc fusion)
# chain: B7 chain with T18F, P52S, P79L
# B14: variant CD155 IgV-Fc V9L, P18L, L79P, M90I, F91S, T102S, L104M, G111R (Fc fusion)
# chain: B7 chain with V9L, T18L, P52S, A65S, V67S, M90I, T102S
# B15: variant CD155 IgV-Fc T15I, P18T, L79P, F91S, L104M, G111R (Fc fusion)
# chain: B7 chain with T15I, P52S, A65S, V67S
# B16: variant CD155 IgV-Fc P18F, T26M, L44V, Q62K, L79P, E82D, F91S, L104M, G111D (Fc fusion)
# chain: B7 chain with T18F, T26M, L44V, P52S, Q62K, A65S, V67S, E82D, R111D
# B17: variant CD155 IgV-Fc P18T, M36T, L79P, F91S, G111R (Fc fusion)
# chain: B7 chain with M36T, P52S, A65S, V67S, M104L
# B18: variant CD155 IgV-Fc P18L, K70E, L79P, F91S, V95A, G111R (Fc fusion)
# chain: B7 chain with T18L, P52S, A65S, V67S, K70E, V95A, M104L
# Target: PD-1 (human)
# Sequence (chain, as listed by the source): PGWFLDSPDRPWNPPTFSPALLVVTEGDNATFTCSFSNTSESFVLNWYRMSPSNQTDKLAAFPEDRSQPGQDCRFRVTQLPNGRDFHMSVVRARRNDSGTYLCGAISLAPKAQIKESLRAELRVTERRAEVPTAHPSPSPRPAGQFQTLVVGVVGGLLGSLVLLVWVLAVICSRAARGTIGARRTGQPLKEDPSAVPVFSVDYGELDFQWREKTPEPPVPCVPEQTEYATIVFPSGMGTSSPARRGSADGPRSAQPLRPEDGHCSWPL
# Assay: cell-based or functional assay
row,Binder,IFN gamma levels pg/ml (MLR) [pg/mL]
1,B1,1170

# Target: T1, human TIGIT
# Assay: flow cytometry, transfected HEK293 cells
row,Binder,MFI at 25 nM
1,B2,3000

# Target: T2, TIGIT
# Assay: cell-based or functional assay
row,Binder,"IL-2 luciferase reporter, Normalized Fold Change from CD155-ECD, proteins at 50 nM [fold]"
1,B3,1.6
2,B4,8.6
3,B5,7.4
4,B6,4
5,B7,3.6
6,B8,-0.9
7,B9,-1.9
8,B10,2
9,B11,-0.1
10,B12,2.3
11,B13,0.6
12,B14,2.4
13,B15,0.4
14,B16,4
15,B17,4.1
16,B18,2.4
